Consider 30 sequences from the nanobody polyreactivity screen of Harvey et al. (2022).

This data set is described as follows: yeast display, Sf9 membrane polyspecificity reagent, FACS + sequencing; frameworks hold sequencing errors. Summed up: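 Nanobodies came from a synthetic yeast display library in Saccharomyces cerevisiae BJ5465, induced with galactose for 36–48 hours and stained for 1 hour at 4 °C with 10% biotinylated, detergent-solubilized Sf9 membrane reagent. Cells were enriched on streptavidin microbeads and then FACS-sorted, with low and high (top ~1%) gates set on anti-HA fluorescence for expression and streptavidin fluorescence for reagent binding. Each polyreactivity label reflects the gate a clone came from. Genes were amplified by colony PCR, sequenced by MiSeq 2 × 250 and filtered by CDR length.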
As to “QVQLVESGGGLVQAGGSLRLSCAATGLNFAYNAMGWYRQAPGKERELVAAITGGGDGTYYADSVKGRFTISRDNAKNTVYLQMNSLKPEDTAVYYCADDYKYVGSEYGYWGQGTQVTVSS”, the “polyreactivity (PSR sort gate)” value was “low polyreactivity”.
“QVQLVESGGGLVQAGGSLRLSCAASGFTFRSYAMGWYRQAPGKERELVAAITSTGGRTYYADSVKGRFTISRDTAKNTVYLQMNSLKPEDTAVYYCAAGRKHYAPVHFGYWGQGTQVTVSS”: the “polyreactivity (PSR sort gate)” value was “high polyreactivity”.
In the case of “QVQLVDSGGGLVQAGGSLRLTCAASGGIFKRYAMGWYRQAPGKERELVAAISGRGGGTYYADSVKGRFTISRDNAKNTVYLQMNSLKPEDTAVYYCNARLSWSAFGYWGQGTQVTVSS” it was “high polyreactivity”.
The result for “HVQLVESGGGLVQAGGSLRLSCAASGRTFVNNAMGWYRQAPGKERELVAAISQSGSRTYYADSVKGRFTISRDNAKNTVYLQMNSLKPEDTAVYYCAARGARYSTSDYWGQGTQVTVSS” reads “high polyreactivity”.
For the sequence “QVQLVESGGGLVQGGGSLRLSCAASGFTFYYNAMGSYRQAPGKERELVADITSGGDTYYADSVKGRFTISRDNAKNTVYLQRNSLKPEDTAVYYCAAELWGLFDYWGQGTEVTVSS”, the “polyreactivity (PSR sort gate)” value is recorded as “low polyreactivity”.
On to “QVQLVESGGGLVQAGGSLRLSCAASGSIFYFYTMGWYRQAPGKERELVAAISGGGGSTYYADSVTGRFTISRDNAKNTVYLQMNSLKPEDTAVYYCAADGAGWLDYGYWGQGTQVTVSS”, for which the “polyreactivity (PSR sort gate)” value is recorded as “low polyreactivity”.
For “QVQLVESGGGLVQAGGSLRLSCAASGFTFGYYAMGWYRQAPGKERELVASISSRGGSTNYADSVKGRFTISRDNAKNTVYLQMNSLKPEDTAVYYCNADYYYPLRSNKYYYWGQGTQVTVSS”, the “polyreactivity (PSR sort gate)” value is on record as “high polyreactivity”.
In the case of “QVQLVESGGGLVQAGGSLRLSCAASGRILYYYAMGWSRQAPGKERELVAGITTDDSTNYADSVKGRFTISRDNAKNTVYLQMNSLKPEDTAVYYCAAKYVHGEYDYWGQGTQVTVSS” it was “low polyreactivity”; in that of “QVQLVESGGGLVQAGGSLRLSCAASGIIFFRYAMGWYRQAPGKERELVAGISGSGGSTYYADSVKGRFTISRDNAKNTVYLQMNSLKPEDTAVYYCAKQWKSNIYYQGGYWGQGTQVTVSS”, “high polyreactivity”; in that of “QVQLVESGGGLVQAGGSLRLSCAASGGIILGYAMRWYRQARGKERELVAAISRSGVSTYYADSVKGRFTISRDNAKNTVYLQMNSLKPEDTAVYYCASDYRYASDYWGLGTQVTVSS”, “low polyreactivity”.
On to “QVQLVESGGGLVQAGGSLRLSCAASGSIFQHYAMGWYRQAPGKERELVARINWSGGRTYYADSVKGRFTISRDNAKNTVYLQMNSLKPEDTAVYYCNARYYYWGKAAFNYWGQGTQVTVSS”, for which the “polyreactivity (PSR sort gate)” value is reported as “high polyreactivity”.
In the case of “QVQLVESGGGLVQAGGSLRLSCAASGITFFRYAMGWYRQAPGKEREFVAAISGRGGSTYYADSVKGRFTISRDNAKNTVYLQMNSLKPEDTAVYYCATRRSYLADYWGQGTQVTVSS” it was “high polyreactivity”.
In the case of “QVQLQESGGGLVQAGGSLRLSCAASGSIYDDTYMGWYRQAPGKERELVATIDSGSTTNYADSVKGRITISRDNAKYTVYLQMNSLKPEDTAVYYCAAADSHIDYFDYWGQGTQVTVSS” it was “low polyreactivity”.
In the case of “QVQLVESGGGLDQAGGSLRLSCAASGFIINRNAMGWYRQAPGKERELVADITGGSTYYADSVKGRFTISRDNAKNTVYLQMNSLKPEDNAVYYCAADVLRITTLLFRGTGFDSWGHGTQVTVSS”, the “polyreactivity (PSR sort gate)” value is given as “low polyreactivity”.
The result for “QVQLVESGGGLVQAGGSLRLSCAASGSIFSRYAMGWYRQAPGKERELVAAINGRGSRTYYADSVKGRFTISRDNEMNTVYLQMNSLKPEDTAVYYCAAGRSRLYGPRYFIYKYNYWGQGTQVTVSS” reads “high polyreactivity”.
The result for “QVQLVESGGCLVQAGGSLRLSCAASGFTFYGYAMAWYRQAPGKERELVAYISWSGGTTYYADSVKGRFTISRDNAKNTVYLQMNSLKPEDTAVYYCNAVRYRYGVFPYYYWGQGTQVTVSS” reads “high polyreactivity”; that for “QVQLVESGGGLVQAGGSLRLSCAASGYIFYRYTMGWYRQAPGKERELVAAISFRGGTTYYADSVKGRFTISRDNAKNTVYLQMNSLKPEDTAVYYCAARYGYYTSDYKYYYWGQGTQVTVSS”, “high polyreactivity”; that for “QVQLVESGGGLVQAGGSLRLSCAATGSIFSFYAMGWYRQAPGKERELVAGIRWRGGTSTFYADSVKGRFTISRDKAKNTVYLHMNSLKPEDTAVYYCAAKRRTGGNGYWGQGTQVTVSS”, “high polyreactivity”.
In the case of “QVQLVESGGGLVQAGGSLRLSCAASGSIFGAYAMGWYRQAPGKERELVATITLRDGSTYYADSVKGRFTISRDNAKNTVYLQMNSLKPEDTAVYYCATYYSAINYGWSNTILYDYWGQGTQVTVSS” it was “low polyreactivity”.
As to “QVQLVESGGGLVQAGGSLRLICAASGRTFNWNAMGWYRQAPGKERELVAAITSGGNTYYADSVKGRFTISRDNAKNTVYLQMNSLKPEDTAVYYCAKVTYEGGYRYNYWGQGTQVTVSS”, the “polyreactivity (PSR sort gate)” value was “high polyreactivity”.
In the case of “QVQLVESGGGLVQAGGSLRLSCAASGYTFRYNTMGWYRQAPGKERELVADISSGVGNTYYADSVKGRFTISRDNAKNTVYLQMNSLKPEDTAVYYCNADYKSSYYWYLWYNYWGHGTQVTVSS” it was “low polyreactivity”; in that of “QVQLVESVGGLVQAGGSLRLSCAASGRTFYRYAMGWYRPAPGKERELVAAITASGGSTYYADSVKGRFTISRDNAQNTVYLQMKSLKPEDTAVYYCAKGGKSRYSTWHGDYWGQGTQVTVSS”, “high polyreactivity”.
The result for “QVQLVESGGGLVQAGGSLRLSCAASGITFRGYAMGWYRQAPGKERELVAAISSGGRTNYADSVKGRFTISRDNAKNTVYLQMNSLKPEDTAVYYCAARYRREKAGYRWDIFYWGQGTQVTVSS” reads “high polyreactivity”; that for “QVQLVVSGGGLVQAGGSLRLSCAASGSTVVTYAMGWYRQAPGKERELVAAISRSGTSTYYADSVKGRYTISRDNAKYTVYLHLPSRKPEDTAVYDCAAYGPRVNGEIGREYYYWGQGTQVTVSS”, “low polyreactivity”.
Turning to “QVQLVESGGGLVQAGGSLRLSCAASGFIFVYYGMVWYRQAPGKERELVAAISRSGGSTYYADSVKGRFTISRDNAKNTVYLQMNSLKPEDTAVYYCNVVRWYYHPPLTGSRFDYWGHGTQVTVSS”, the “polyreactivity (PSR sort gate)” value is “high polyreactivity”.
“QVQLVESGGGLVQAGGSLRLSCAASGLTFPLYAMGWYRQAPGKEREFVAAITVSGVSTSYADSVKGRFTISRDNAKNTVYLQMNSLKPEDTAVYYCAADYYIWTYWDVYYWGQGTQVTVSS”: the “polyreactivity (PSR sort gate)” value was “high polyreactivity”.
With “QVQLEESGGGLVQAGGSLRLSCAASGRIFYQNAMGWYRQAPGKERQLVADIASGGSTSYADSVKGRFTISRDNAKNTVYIQMNSLKPEDTAVYYCATAVLYGDGWYYYWGQGTQVTVSS”, the “polyreactivity (PSR sort gate)” value was “low polyreactivity”.
As for “QVQLVESGGGLVKAGGSLRLSCAASGFIFSLYAMGWYRQAPGKERELVASINRRGTSTFYADSVKGRFTISRDNAKNTVYLQMNSLKPEDTAVYYCNAYPGAAIRSTGRYDYWGQGTQVTVSS”, the “polyreactivity (PSR sort gate)” value was “low polyreactivity”.
In the case of “QVQLVESGGGLVQAGGSLRLSCAASGFTFKYYAMGWYRQAPGKERELVARISWSGGSTYYADSVKGRFTISRDNAKNTFYLQMNSLKPEDTAVYYCNTDVGYGFDYWGQGTQVTVSS” it was “high polyreactivity”.
In the case of “QVQLVESGGGLVQAGGSLRLSCAASGRIFGWYSMGWYRQAPGKERELVAAISSNGGSTYYADSVKGRFTISRDNAKNTVYLQMNSLKPEDTAVYFCAAVRVFQYKYDRFNYWGQGTQVTVSS”, the “polyreactivity (PSR sort gate)” value is recorded as “high polyreactivity”.
